Target: Mycobacterium tuberculosis cytochrome bcc complex (QcrCAB) (M. tuberculosis) (UniProt P9WP35)
Assay: pyridine hemochrome heme quantification

## Mycobacterium smegmatis cytochrome aa3 (cytochrome oxidase) (complex)
  stoichiometry N: 1

From article PMC4505504
